Data taken from the supplement of paper PMC10567573.

B1: ANKRD17 (parent)
chain: EVLRRLTSSVSCALDEAAAALTRM
B2: PSD2 (parent)
chain: LTHFSRRYCQCNPDDSTSEDGIHT
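Also: lentivirally expressed fusions sorted by FACS into six bins by GFP to DsRed ratio, PSI derived from sequencing read proportions per bin multiplied by bin number.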

Variants of: B1
Assay: protein stability index of a GFP-peptide fusion (GPS, HEK-293T) (PSI 1-6); higher = more stable
Details: c terminus: a fixed tail appended
Work on EVLRRLTSSVSCALDEAAAMLTRM yielded a protein stability index of 2.28. Variant EVLRRLTSSVSCALDEAAAVLTRM has a protein stability index of 1.91. EVLRRLTSSVSCALDEAAAWLTRM showed a protein stability index of 2.48. Work on EVLRRLTSSVSCALDEAAARLTRM yielded a protein stability index of 2.64. With EVLRRLTSSVSCALDEAAAQLTRM the protein stability index was 3.08. EVLRRLTSSVSCALDEAAANLTRM gave a protein stability index of 3.01. In the case of EVLRRLTSSVSCALDEAAADLTRM, the protein stability index is reported as 1.65. With EVLRRLTSSVSCALDEAAAELTRM the protein stability index was 3.31. Variant EVLRRLTSSVSCALDEAAAHLTRM has a protein stability index of 1.52. For EVLRRLTSSVSCALDEAAALLTRM, the protein stability index was 1.45. EVLRRLTSSVSCALDEAAACLTRM gave a protein stability index of 2.73. Variant EVLRRLTSSVSCALDEAAAILTRM has a protein stability index of 2.52. EVLRRLTSSVSCALDEAAAYLTRM gave a protein stability index of 3.13. For EVLRRLTSSVSCALDEAAAFLTRM, the protein stability index was 1.65. With EVLRRLTSSVSCALDEAAAKLTRM the protein stability index was 2.69. EVLRRLTSSVSCALDEAAYALTRM gave a protein stability index of 2.92. With EVLRRLTSSVSCALDEAAAADTRM the protein stability index was 1.53. EVLRRLTSSVSCALDEAAAAWTRM showed a protein stability index of 1.6. For EVLRRLTSSVSCALDEAAAACTRM, the protein stability index was 1.18. For EVLRRLTSSVSCALDEAAAAVTRM, the protein stability index was 2.04. Work on EVLRRLTSSVSCALDEAAAAHTRM yielded a protein stability index of 1.89. EVLRRLTSSVSCALDEAAAARTRM gave a protein stability index of 5.02. Variant EVLRRLTSSVSCALDEAAAAITRM has a protein stability index of 1.93. Variant EVLRRLTSSVSCALDEAAAAFTRM has a protein stability index of 1.65. Work on EVLRRLTSSVSCALDEAAAAMTRM yielded a protein stability index of 1.5. With EVLRRLTSSVSCALDEAAAANTRM the protein stability index was 3.47. EVLRRLTSSVSCALDEAAAALKRM showed a protein stability index of 1.86. In the case of EVLRRLTSSVSCALDEAAAALFRM, the protein stability index is reported as 2.21. Variant EVLRRLTSSVSCALDEAAAALVRM has a protein stability index of 1.24. EVLRRLTSSVSCALDEAAAALIRM showed a protein stability index of 2.36. For EVLRRLTSSVSCALDEAAAALWRM, the protein stability index was 1.46. For EVLRRLTSSVSCALDEAAAALRRM, the protein stability index was 1.31. EVLRRLTSSVSCALDEAAAALYRM gave a protein stability index of 1.85. In the case of EVLRRLTSSVSCALDEAAAALQRM, the protein stability index is reported as 3. EVLRRLTSSVSCALDEAAAALHRM gave a protein stability index of 3.03. EVLRRLTSSVSCALDEAAAALMRM showed a protein stability index of 2.39. EVLRRLTSSVSCALDEAAAALCRM gave a protein stability index of 2.1. Variant EVLRRLTSSVSCALDEAAAALPRM has a protein stability index of 2.33. Variant EVLRRLTSSVSCALDEAAAALNRM has a protein stability index of 1.93. For EVLRRLTSSVSCALDEAAAALDRM, the protein stability index was 2.22. EVLRRLTSSVSCALDEAAAALARM showed a protein stability index of 1.94. For EVLRRLTSSVSCALDEAAAALERM, the protein stability index was 2.06. EVLRRLTSSVSCALDEAAAALTRW showed a protein stability index of 3.27. EVLRRLTSSVSCALDEAAAALTRH gave a protein stability index of 2.49. With EVLRRLTSSVSCALDEAAAALTRD the protein stability index was 1.43. Work on EVLRRLTSSVSCALDEAAAALTRN yielded a protein stability index of 1.65. Variant EVLRRLTSSVSCALDEAAAALTRS has a protein stability index of 2.42. EVLRRLTSSVSCALDEAAAALTRV gave a protein stability index of 1.07. EVLRRLTSSVSCALDEAAAALTRL showed a protein stability index of 2.81. EVLRRLTSSVSCALDEAAAALTRT gave a protein stability index of 3.53. For EVLRRLTSSVSCALDEAAAALTRY, the protein stability index was 1.43. For EVLRRLTSSVSCALDEAAAALTRI, the protein stability index was 2.08. Work on EVLRRLTSSVSCALDEAAAALTRR yielded a protein stability index of 2.72. In the case of EVLRRLTSSVSCALDEAAAALTRF, the protein stability index is reported as 2.44. For EVLRRLTSSVSCALDEAAAALTRC, the protein stability index was 2.33. With EVLRRLTSSVSCALDEAAAALTRQ the protein stability index was 2.2. With EVLRRLTSSVSCALDEAAAALTKM the protein stability index was 1.21. EVLRRLTSSVSCALDEAAAALTVM showed a protein stability index of 1.02. With EVLRRLTSSVSCALDEAAAALTQM the protein stability index was 1.74. With EVLRRLTSSVSCALDEAAAALTAM the protein stability index was 2.91. In the case of EVLRRLTSSVSCALDEAAAALTSM, the protein stability index is reported as 1.93. For EVLRRLTSSVSCALDEAAAALTWM, the protein stability index was 3.5. EVLRRLTSSVSCALDEAAAALTMM gave a protein stability index of 1.59. Variant EVLRRLTSSVSCALDEAAAALTNM has a protein stability index of 1.35. Work on EVLRRLTSSVSCALDEAAAALTGM yielded a protein stability index of 2.35. With EVLRRLTSSVSCALDEAAAALTPM the protein stability index was 2.15. EVLRRLTSSVSCALDEAAAALTIM gave a protein stability index of 1.92. For EVLRRLTSSVSCALDEAAAALTDM, the protein stability index was 2.8. Work on EVLRRLTSSVSCALDEAAAALTHM yielded a protein stability index of 1.95. EVLRRLTSSVSCALDEAAAALTFM showed a protein stability index of 4.05. Variant EVLRRLTSSVSCALDEAAAALTEM has a protein stability index of 2.64.

Variants of: B2
Assay: as above
Details: c terminus: a fixed tail appended
LTDFSRRYCQCNPDDSTSEDGIHT showed a protein stability index of 4.38. LTSFSRRYCQCNPDDSTSEDGIHT gave a protein stability index of 3.29. In the case of LTIFSRRYCQCNPDDSTSEDGIHT, the protein stability index is reported as 2.83. LTLFSRRYCQCNPDDSTSEDGIHT showed a protein stability index of 2.96. LTQFSRRYCQCNPDDSTSEDGIHT gave a protein stability index of 3.47. For LTPFSRRYCQCNPDDSTSEDGIHT, the protein stability index was 3.03. With LTNFSRRYCQCNPDDSTSEDGIHT the protein stability index was 3.55. Variant LTTFSRRYCQCNPDDSTSEDGIHT has a protein stability index of 3.28. LTKFSRRYCQCNPDDSTSEDGIHT gave a protein stability index of 3.52. LTFFSRRYCQCNPDDSTSEDGIHT showed a protein stability index of 2.16. Variant LTGFSRRYCQCNPDDSTSEDGIHT has a protein stability index of 2.92. Variant LTEFSRRYCQCNPDDSTSEDGIHT has a protein stability index of 3.61. LTVFSRRYCQCNPDDSTSEDGIHT gave a protein stability index of 3.69. With LTYFSRRYCQCNPDDSTSEDGIHT the protein stability index was 3.13. Work on LTCFSRRYCQCNPDDSTSEDGIHT yielded a protein stability index of 2.73. In the case of LTMFSRRYCQCNPDDSTSEDGIHT, the protein stability index is reported as 2.62. With LTWFSRRYCQCNPDDSTSEDGIHT the protein stability index was 2.16. LTAFSRRYCQCNPDDSTSEDGIHT showed a protein stability index of 3.54. In the case of LTRFSRRYCQCNPDDSTSEDGIHT, the protein stability index is reported as 3.62. MTHFSRRYCQCNPDDSTSEDGIHT gave a protein stability index of 3.16. Variant ITHFSRRYCQCNPDDSTSEDGIHT has a protein stability index of 3.69. For YTHFSRRYCQCNPDDSTSEDGIHT, the protein stability index was 1.62. With GTHFSRRYCQCNPDDSTSEDGIHT the protein stability index was 3.79.
